Reference: US20210138031A1 (TRUSTEES OF TUFTS COLLEGE, published 2021)
Values belong to the molecule of their own block, whether it stands above or below them.

Columns and labels:
C9 = C9 (UniProt P02748 22-559); experiment: cell-based or functional assay
C3b = C3b (human, UniProt P01024 749-1663; P01024 23-667); experiment: cell-based or functional assay
C3b, sequence (P01024 749-1663 limits assumed, chain 1 of 2): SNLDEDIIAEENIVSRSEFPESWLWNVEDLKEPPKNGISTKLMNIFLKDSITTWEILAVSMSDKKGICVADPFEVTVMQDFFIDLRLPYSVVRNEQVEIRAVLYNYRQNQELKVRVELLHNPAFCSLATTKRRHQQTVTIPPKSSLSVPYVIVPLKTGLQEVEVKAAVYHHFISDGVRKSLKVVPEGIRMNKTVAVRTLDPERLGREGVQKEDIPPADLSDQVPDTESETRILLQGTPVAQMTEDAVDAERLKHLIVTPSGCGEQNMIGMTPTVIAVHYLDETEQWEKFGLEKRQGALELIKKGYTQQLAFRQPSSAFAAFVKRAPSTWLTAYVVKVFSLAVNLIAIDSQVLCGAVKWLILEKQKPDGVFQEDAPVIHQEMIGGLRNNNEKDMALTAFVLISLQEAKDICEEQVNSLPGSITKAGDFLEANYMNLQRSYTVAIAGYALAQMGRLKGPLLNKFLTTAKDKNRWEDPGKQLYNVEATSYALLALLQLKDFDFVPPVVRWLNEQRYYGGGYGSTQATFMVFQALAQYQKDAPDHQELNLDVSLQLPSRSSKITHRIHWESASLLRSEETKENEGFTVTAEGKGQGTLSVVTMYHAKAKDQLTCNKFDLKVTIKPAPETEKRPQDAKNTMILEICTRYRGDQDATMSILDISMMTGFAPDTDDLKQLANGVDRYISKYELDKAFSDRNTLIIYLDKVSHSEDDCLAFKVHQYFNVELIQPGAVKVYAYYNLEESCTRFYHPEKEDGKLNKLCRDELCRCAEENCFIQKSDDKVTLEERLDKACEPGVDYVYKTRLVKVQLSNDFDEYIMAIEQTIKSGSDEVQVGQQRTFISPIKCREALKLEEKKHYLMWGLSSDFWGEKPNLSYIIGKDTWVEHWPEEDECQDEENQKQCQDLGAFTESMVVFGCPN
C3b, sequence (P01024 23-667 limits assumed, chain 2 of 2): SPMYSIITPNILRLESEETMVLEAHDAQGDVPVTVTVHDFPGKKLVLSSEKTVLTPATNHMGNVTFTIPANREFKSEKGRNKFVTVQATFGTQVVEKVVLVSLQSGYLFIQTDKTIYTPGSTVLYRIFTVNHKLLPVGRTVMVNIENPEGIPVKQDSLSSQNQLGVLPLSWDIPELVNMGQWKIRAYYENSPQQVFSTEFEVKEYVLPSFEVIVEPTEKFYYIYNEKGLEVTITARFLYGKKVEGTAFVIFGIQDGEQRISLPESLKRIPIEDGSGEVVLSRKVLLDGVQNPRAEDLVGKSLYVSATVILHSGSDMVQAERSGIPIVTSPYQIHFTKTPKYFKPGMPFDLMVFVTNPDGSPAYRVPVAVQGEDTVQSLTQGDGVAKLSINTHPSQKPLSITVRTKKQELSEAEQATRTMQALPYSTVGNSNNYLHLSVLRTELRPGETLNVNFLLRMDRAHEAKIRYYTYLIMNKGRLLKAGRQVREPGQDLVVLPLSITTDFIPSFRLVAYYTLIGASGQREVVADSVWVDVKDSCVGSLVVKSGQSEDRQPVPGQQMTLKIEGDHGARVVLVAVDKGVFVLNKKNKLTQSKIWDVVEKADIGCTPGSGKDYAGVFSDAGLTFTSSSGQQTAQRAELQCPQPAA

C9, sequence (P02748 22-559 limits assumed): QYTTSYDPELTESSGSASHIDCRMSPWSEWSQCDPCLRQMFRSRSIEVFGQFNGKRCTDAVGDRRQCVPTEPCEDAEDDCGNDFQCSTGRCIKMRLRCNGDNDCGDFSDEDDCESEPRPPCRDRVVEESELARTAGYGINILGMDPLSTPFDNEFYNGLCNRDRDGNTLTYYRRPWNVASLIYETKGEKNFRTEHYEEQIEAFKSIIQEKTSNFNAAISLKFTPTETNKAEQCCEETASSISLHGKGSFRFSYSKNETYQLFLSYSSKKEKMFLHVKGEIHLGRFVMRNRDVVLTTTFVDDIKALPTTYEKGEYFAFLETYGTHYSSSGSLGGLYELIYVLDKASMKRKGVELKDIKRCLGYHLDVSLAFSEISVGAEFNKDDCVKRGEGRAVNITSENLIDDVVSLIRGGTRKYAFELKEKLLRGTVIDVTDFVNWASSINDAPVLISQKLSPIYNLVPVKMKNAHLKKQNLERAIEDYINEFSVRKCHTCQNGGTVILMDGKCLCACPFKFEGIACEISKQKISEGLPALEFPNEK

reduction in lysis of sheep erythrocytes carrying C5b-8 after addition of C9, compared to GFP media containing C9 (C9): 21%
Molecule: sCD59 (soluble CD59, positive control) (from UniProt P13987 26-102)

reduction in C3b α′ chain signal intensity in the presence of Factor I, relative to media from pGFP transfected cells (quantitative western blot) (C3b): 34.3%
B1: soluble terminator of activated complement (STAC) (other)
chain: LQCYNCPNPTADCKTAVNCSSDFDACLITKAGLQVYNKCWKFEHCNFNDVTTRLRENELTYYCCKKDLCNFNEQLEGGGGGCEEPPTFEAMELIGKPKPYYEIGERVDYKCKKGYFYIPPLATHTICDRNHTWLPVSDDACYRETCPYIRDPLNGQAVPANGTYEFGYQMHFICNEGYYLIGEEILYCELKGSVAIWSGKPPICEKVLCTPPPKIKNGKHTFSEVEVFEYLDAVTYSCDPAPGPDPFSLIGESTIYCGDNSVWSRAAPECKVVKCRFPVVENGKQISGFGKKFYYKATVMFECDKGFYLDGSDTIVCDSNSTWDPPVPKCLKVGGGGGGDCGLPPDVPNAQPALEGRTSFPEDTVITYKCEESFVKIPGEKDSVICLKGSQWSDIEEFCNRSCEVPTRLNSASLKQPYITQNYFPVGTVVEYECRPGYRREPSLSPKLTCLQNLKWSTAVEFCKKKSCPNPGEIRNGQIDVPGGILFGATISFSCNTGYKLFGSTSSFCLISGSSVQWSDPLPECREIYCPAPPQIDNGIIQGERDHYGYRQSVTYACNKGFTMIGEHSIYCTVNNDEGEWSGPPPECRGKSLTSKVPPTVQKPTTVNVPTTEVSPTSQKTTTKTTTPNAQATRSTPVSRTTKHFHETTPNKGSGTTSGTT

reduction of release of hemoglobin from sheep erythrocytes carrying C5b-8 after addition of C9, relative to media from pGFP-transfected cells (C9): 34.8%
B2: Dual Terminator of Active Complement (DTAC) (other)
chain: GGDCGLPPDVPNAQPALEGRTSFPEDTVITYKCEESFVKIPGEKDSVICLKGSQWSDIEEFCNRSCEVPTRLNSASLKQPYITQNYFPVGTVVEYECRPGYRREPSLSPKLTCLQNLKWSTAVEFCKKKSCPNPGEIRNGQIDVPGGILFGATISFSCNTGYKLFGSTSSFCLISGSSVQWSDPLPECREIYCPAPPQIDNGIIQGERDHYGYRQSVTYACNKGFTMIGEHSIYCTVNNDEGEWSGPPPECRGKSLTSKVPPTVQKPTTVNVPTTEVSPTSQKTTTKTTTPNAQATRSTPVSRTTKHFHETTPNKGSGTTSGTTGGGGGLQCYNCPNPTADCKTAVNCSSDFDACLITKAGLQVYNKCWKFEHCNFNDVTTRLRENELTYYCCKKDLCNFNEQLE
modifications: glycosylated (about 76 kDa band observed)

reduction of release of hemoglobin from sheep erythrocytes carrying C5b-8 after addition of C9, relative to media from pGFP-transfected cells (C9): 29.9%
B3: Soluble Active Complement Terminator (SACT) (other)
chain: GCEEPPTFEAMELIGKPKPYYEIGERVDYKCKKGYFYIPPLATHTICDRNHTWLPVSDDACYRETCPYIRDPLNGQAVPANGTYEFGYQMHFICNEGYYLIGEEILYCELKGSVAIWSGKPPICEKVLCTPPPKIKNGKHTFSEVEVFEYLDAVTYSCDPAPGPDPFSLIGESTIYCGDNSVWSRAAPECKVVKCRFPVVENGKQISGFGKKFYYKATVMFECDKGFYLDGSDTIVCDSNSTWDPPVPKCLKVGGGGGGDCGLPPDVPNAQPALEGRTSFPEDTVITYKCEESFVKIPGEKDSVICLKGSQWSDIEEFCNRSCEVPTRLNSASLKQPYITQNYFPVGTVVEYECRPGYRREPSLSPKLTCLQNLKWSTAVEFCKKKSCPNPGEIRNGQIDVPGGILFGATISFSCNTGYKLFGSTSSFCLISGSSVQWSDPLPECREIYCPAPPQIDNGIIQGERDHYGYRQSVTYACNKGFTMIGEHSIYCTVNNDEGEWSGPPPECRGKSLTSKVPPTVQKPTTVNVPTTEVSPTSQKTTTKTTTPNAQATRSTPVSRTTKHFHETTPNKGSGTTSGTTGGGGGLQCYNCPNPTADCKTAVNCSSDFDACLITKAGLQVYNKCWKFEHCNFNDVTTRLRENELTYYCCKKDLCNFNEQLE
modifications: N- and O-linked glycosylation (about 110 kDa band observed)
